Earlier results in PMC5321513.

Key:
14-3-3σ (Homo sapiens) = 14-3-3σ (Homo sapiens) (UniProt P31947)
14-3-3ζ (Homo sapiens) = 14-3-3ζ (Homo sapiens) (UniProt P63104)
14-3-3ζ (Homo sapiens), sequence (P63104 whole entry): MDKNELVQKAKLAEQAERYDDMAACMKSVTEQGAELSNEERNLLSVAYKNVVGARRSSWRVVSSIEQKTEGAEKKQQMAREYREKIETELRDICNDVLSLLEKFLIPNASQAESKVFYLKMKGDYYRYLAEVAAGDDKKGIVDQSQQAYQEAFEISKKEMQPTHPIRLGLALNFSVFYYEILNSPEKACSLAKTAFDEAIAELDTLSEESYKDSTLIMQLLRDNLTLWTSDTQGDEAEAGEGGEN

14-3-3σ (Homo sapiens), sequence (P31947 whole entry): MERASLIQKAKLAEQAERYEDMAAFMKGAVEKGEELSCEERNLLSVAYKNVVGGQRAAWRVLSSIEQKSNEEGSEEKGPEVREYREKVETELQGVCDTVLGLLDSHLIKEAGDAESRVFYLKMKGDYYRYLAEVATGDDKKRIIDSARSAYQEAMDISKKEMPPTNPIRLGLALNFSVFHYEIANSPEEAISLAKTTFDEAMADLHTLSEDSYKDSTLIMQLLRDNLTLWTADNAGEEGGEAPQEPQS

Kd (14-3-3σ (Homo sapiens)) | Kd (14-3-3ζ (Homo sapiens)) | Substance
16.3 µM |  | p53 phosphopeptide (from UniProt P04637)
 | 16.7 µM | C-RAF phosphopeptide (from UniProt P04049)
